From the Human Domainome abundance scans (Beltran et al. 2025)

B1: DnaJ homolog subfamily C member 5, residues 16 to 77; numbered along this chain, Q9H3Z4 (parent)
chain: LYHVLGLDKNATSDDIKKSYRKLALKYHPDKNPDNPEAADKFKEINNAHAILTDATKRNIYD

Variants of: B1
Experiment: abundance fitness (aPCA) (normalised: wild type 0, dead -1); higher = more abundant; growth selection in yeast, the domain comes from the species named
Conditions: Homo sapiens

Abundance fitness: each site, then its substitutions
K57: E -0.023 | V -0.656 | Q -0.1 | T -0.415 | G -0.373 | W -0.99 | M -0.43 | P -0.593 | R -0.059 | L -0.399 | D -0.079 | C -0.672 | F -1.01 | N -0.575 | I -0.511 | A -0.079 | S -0.349
N47: R -0.142 | S -0.259
A48: Y -0.748 | T -0.777 | D -0.16 | M -1.06 | W -1.58 | V -0.777 | E -0.387 | F -1.72 | S -0.277 | P -0.384 | N -0.903 | C -0.85 | G -0.455 | I -0.769 | H -0.477 | Q -0.82
D54: Y -1.01 | Q -0.666 | M -0.634 | F -1.01 | V -0.613 | L -0.632 | C -0.499 | T -0.512 | E -0.278 | G -0.304 | W -0.907 | A -0.214 | N 0.044 | R -0.382 | K -0.056
A50: W -0.748 | T -0.072 | V -0.19 | Y -0.604 | K -0.091 | E -0.562 | C -0.688 | P -0.773 | G -0.198 | M -0.087 | R -0.009 | Q -0.294 | S 0.059 | L -0.386 | F -0.61 | I -0.334 | H -0.237
R58: Q -0.161 | Y -0.575 | I -0.503 | W -0.636 | F -0.617 | N -0.114 | A -0.044 | D -0.348 | H -0.275 | P -0.119 | C -0.442 | V -0.363 | E 0.109 | M -0.471 | L -0.43 | S -0.114 | G -0.21
A55: C -0.37 | V -0.14 | I -0.406 | F -0.334 | H -0.287 | S -0.135 | Q 0.028 | G -0.151 | P -0.036 | M -0.258 | W -0.413 | L -0.26 | E -0.061 | R -0.156 | Y -0.423 | K -0.002 | D -0.514 | N -0.117
E44: S -0.3 | W -0.731 | R -0.435 | F -0.744 | I -0.73 | G -0.527 | P -0.626 | Q -0.301 | K -0.376 | C -0.524 | T -0.518 | A -0.135 | L -0.504 | V -0.264 | Y -0.742 | N -0.196 | M -0.097 | D -0.154
T53: W -0.579 | Q -0.186 | N 0.101 | I -0.286 | R -0.127 | L -0.032 | D -0.093 | K -0.011 | S -0.116 | P -0.678 | F -0.491 | A -0.118 | G 0.07 | M -0.157 | C -0.126 | E -0.277
K41: S -0.223 | F -0.447 | N -0.434 | I -0.211 | D -0.493 | G -0.433 | A -0.222 | Y -0.254 | E -0.311 | V -0.278 | P -1.1 | W -0.4 | Q -0.333 | T -0.197 | R -0.119 | C -0.598
H49: L -0.291 | I -0.639 | A 0.009 | P -0.423 | F 0.149 | T -0.26 | E -0.362 | V -0.091 | S -0.279 | C -0.405 | W -0.153 | K -0.032 | R 0.029 | G -0.052 | D -0.4
